The values that follow come from patent publication US20220057411A1 (PERSEUS SCIENCE GROUP, published 2022).

The target of assay [1] is T1, full-length human Protein Kinase C, gamma isoform (PKCg), 63-73 kDa (human, UniProt P05129 1-697).
T1 construct: also called PKCγ; full-length PKCg (63-73 kDa)
Nature of the assay: conclusion; clones came from ELISA/MAPIA screening against PKCg.

Assay [2] addresses PKCg 49-52 kDa proteolytic fragment (human). Description: chemiluminescent capillary Western/ELISA on human plasma; 49-52 kDa band; normal plasma sample. As to the method: (§1) The Sensitivity was calculated using (=SUM individual disease samples)/total of all disease samples). False Positives were calculated using the (=SUM each individual healthy sample/total of all healthy samples). Specificity is defined as (1-False Positives). This statistical method maximizes sensitivity and identifies the probability of false positives. The cut-off point for each ROC curve between healthy and disease samples was calculated and then related to the total chemiluminescence signal that is represented by those probabilities. The cut-off for each sample cohort stained with PKC11, PKC13, and PKC14 antibodies are represented by a line in each graph below.
Briefly, to conduct the chemiluminescent capillary ELISA in this example, reagents and individual plasma from Normal vs. TBI clinical samples were loaded into an automated Western blot machine (using the Auto-Western service from RayBiotech Life, Inc). In the first step, sample is loaded into the capillary automatically. […] An electropherogram is produced which plots the baseline, molecular weight and quantitative chemiluminescence signal of each peak. The quantitative signal was derived for each molecular weight band in every electropherogram. Each quantitative chemiluminescence signal was generated using the following formula; (C2-C1/C1), where C2 equals Area Under the Curve and C1 equals the baseline for that sample. […]

For assay [3] the target is unchanged. Nature of the assay: chemiluminescent capillary Western/ELISA on human plasma; 49-52 kDa band; signal at ROC cut-off. As for the experimental part: as §1
(§2) Briefly, to conduct the chemiluminescent capillary ELISA in this example, reagents and individual plasma from Normal vs. TBI clinical samples were loaded into an automated Western blot machine (using the Auto-Western service from RayBiotech Life, Inc). In the first step, sample is loaded into the capillary automatically. Proteins are then separated by size as they electophoretically migrate through a stacking and separation matrix. The separated proteins are then immobilized on the capillary wall via a proprietary photoactivated capture chemistry. […] An electropherogram is produced which plots the baseline, molecular weight and quantitative chemiluminescence signal of each peak. The quantitative signal was derived for each molecular weight band in every electropherogram. Each quantitative chemiluminescence signal was generated using the following formula; (C2-C1/C1), where C2 equals Area Under the Curve and C1 equals the baseline for that sample. […] The resulting specific chemiluminescence signal was detected and quantitated, with sensitivity down in the picograms/ml range, providing a direct measure of TBI biomarkers, i.e., PKCg, and/or PKCg proteolytic fragments.

For assay [4] the target is unchanged. Description: chemiluminescent capillary Western/ELISA on human plasma; 49-52 kDa band; sample signal at ROC cut-off. As for the experimental part: as §1, §2
Assay [5] concerns the target T1, full-length human Protein Kinase C, …. Description: chemiluminescent capillary Western/ELISA on human plasma (stroke vs normal); signal at the ROC point. As to the method: as §1
(§3) Briefly, to conduct the chemiluminescent capillary ELISA in this example, reagents and individual plasma from Normal vs. TBI clinical samples were loaded into an automated Western blot machine (using the Auto-Western service from RayBiotech Life, Inc). In the first step, sample is loaded into the capillary automatically. Proteins are then separated by size as they electophoretically migrate through a stacking and separation matrix. The separated proteins are then immobilized on the capillary wall via a proprietary photoactivated capture chemistry. Target proteins, i.e., PKCg and/or PKCg proteolytic fragments were identified using a primary antibody, e.g., the rabbit monoclonal antibodies described herein, and immunoprobed with an HRP-conjugated secondary goat anti-rabbit IgG antibody and chemiluminescent substrate. An electropherogram is produced which plots the baseline, molecular weight and quantitative chemiluminescence signal of each peak. The quantitative signal was derived for each molecular weight band in every electropherogram. Each quantitative chemiluminescence signal was generated using the following formula; (C2-C1/C1), where C2 equals Area Under the Curve and C1 equals the baseline for that sample. This specific chemiluminescence measure was used in comparisons of all normal human plasma compared to TBI or stroke plasma samples after staining with antibodies, i.e., PKC11, PKC13, or PKC14. Statistical comparisons were made using GraphPad Prism 8 software. The resulting specific chemiluminescence signal was detected and quantitated, with sensitivity down in the picograms/ml range, providing a direct measure of TBI biomarkers, i.e., PKCg, and/or PKCg proteolytic fragments.

Assay [6] concerns the target T2, PKCg 33-36 kDa proteolytic fragment (human).
T2 construct: also called 32-36 kDa fragment
The description is as above. As for the experimental part:
as §1, §3

Assay [7] concerns the target PKCg 42-48 kDa proteolytic fragment (human). The assay is described as above. As to the method: as §1, §3
The target in assay [8] is PKCg 53-60 kDa proteolytic fragment (human). The assay is described as above. As for the experimental part:
as §1, §3

In assay [9] the target is higher molecular weight band at 95-105 kDa (human). The description is as above. As for the experimental part:
as §1, §3

B1: 20H1/20K3 rabbit anti-PKCg monoclonal antibody clone (antibody, V domains shown)
VH: QSVEESGGRLVTPGTPLTLTCTVSGIDLSSNAMNWVRQAPGKGLEWIGIIGFSGSTNYASWAKGRFTISKTSTTVDLKITSPTTEDTATYFCARGGLNIGMNLWGQGTLVTVSS
VL: AQVLTQTPSPVSAAVGGTVPISCQSSQSVYDNNWLAWYQQKPGQPPKLLVYYASTLASGVPSRFKGSGSGTQFTLTINDLECDDAATYYCAGGYGDTNGGASSFGGGTEVVVK
notes: Rabbit IgG heavy chain and kappa light chain; Entries as printed seem to include a leader; no cleavage site is stated
Regarding B1, the binding result in [1] is on record as “binds”.

B2: PKC11 (1H1/1K1) rabbit anti-PKCg monoclonal antibody (antibody, V domains shown)
VH: QSVEESGGRLVTPGTPLALTCTVSGFSLNYYAMNWVRQAPVKGLEWIGVITSDTTYYASWAKGRFTISKTSTTVELQITSPTTEDTATYFCASGGSTTSPALWGQGTLVTVSS
VL: AQVLTQTPSPVSAAVGSTVTINCQASQSVWSKNYLSWFQQKPGQPPKQLIYSASTLASGVPSRFSGSGSGTQFTLTISDVQCDDAATYYCLGSYDCRSADCWTFGGGTEVVVK
notes: Rabbit IgG heavy chain and rabbit kappa light chain; also called mAb PKC11
Turning to B2, the “chemiluminescence signal (normal plasma sample, false positive)” value in assay [2] is 630 chemiluminescence units. The “chemiluminescence signal (ROC cut-off, stroke)” value in assay [3] came out at 797 chemiluminescence units. For the same molecule, the “chemiluminescence signal (ROC cut-off, TBI)” value in assay [4] was 710 chemiluminescence units. In addition, the “Signal Chemiluminescence” value was 1770 chemiluminescence units in [5], 126 chemiluminescence units in [6], 637 chemiluminescence units in assay [7] and 1540 chemiluminescence units in assay [8].

B3: PKC14 (7H1/7K3) rabbit anti-PKCg monoclonal antibody (antibody, V domains shown)
VH: QSLEESGGDLVQPGASLTLTCTASGFTLTTYWICWVRQAPGKGLEWVACILTGSGSTYYASWVNGRFTISKTSSTTVTLQMTSLTAADTATYFCARYGGDATYNENLWGQGTLVTVSS
VL: AQVLTQTPSSVSAAVGGTVTINCQASQSVYNNNRLSWYQQKPGQPPKRLIYGVSTLYYGVSSRFKGSGSGTQFTLTISGMQCDDAAIYYCLGGYDCASADCYAFGGGTEVVVK
notes: Rabbit IgG heavy chain and rabbit kappa light chain; Entries as printed seem to include a leader; no cleavage site is stated; also called mAb PKC14
B3: in [3], the “chemiluminescence signal (ROC cut-off, stroke)” value is 257 chemiluminescence units. In addition, the “chemiluminescence signal (ROC cut-off, TBI)” value in assay [4] worked out at 299 chemiluminescence units. In addition, the “Signal Chemiluminescence” value was 866 chemiluminescence units in assay [5]; 230 chemiluminescence units in assay [6]; 633 chemiluminescence units in assay [7]; 654 chemiluminescence units in [8]; 443 chemiluminescence units in assay [9].

B4: 4H1/4K1 rabbit anti-PKCg monoclonal antibody clone (antibody, V domains shown)
VH: QSVEESGGRLVTPGTPLTLTCTVSGFSLSLSRNAVSWVRQAPGKGLEWTGIIFGDAKTYYASWAKGRFTISKTATTVDLKITSLTTEDTATYFCVAGTGLWGQGTLVTVSS
VL: AQVLTQTASPVSAAVGSTVTINCQASQSVYNKNRLSWYQQKPGQPPKRLIYSSSTLDSGVPLRFSGSGSGTQFTLTISGVQCDDAATYYCLGSYDCSSADCNAFGGGTEVVVK
notes: as for B1
For the molecule B4, the binding result in [1] is recorded as “binds”.

B5: PKC13 (5H1/5K1) rabbit anti-PKCg monoclonal antibody (antibody, V domains shown)
VH: QEQLKESGGGLVTPGGTLTLTCTVSGFSLSSYAMSWVRQAPGKGLEWIGIIISGGSAYYATWAKGRFTISKTSTTVDLSITSPTTEDTATYFCARAKSGTYTGDYFTLWGQGTLVTVSS
VL: AFELTQTPASVEAAVGGTVTIKCQASESIGNALAWYQQKPGQPPKLLIYRASTLESGVPSRFKGSGSGTEFTLTISDLECADAATYYCQSYVGSRSTGYNVFGGGTEVVVK
notes: Rabbit IgG heavy chain and rabbit kappa light chain; Entries as printed seem to include a leader; no cleavage site is stated; also called mAb PKC13; PCK13
Turning to B5, in [3], the “chemiluminescence signal (ROC cut-off, stroke)” value was 999 chemiluminescence units. Also, the “chemiluminescence signal (ROC cut-off, TBI)” value in assay [4] is 658 chemiluminescence units. Moreover, the “Signal Chemiluminescence” value in [6] is 319 chemiluminescence units; in assay [7], 2210 chemiluminescence units; in assay [8], 3350 chemiluminescence units.
